T1: human GITR (amino acids M1-V241, NCBI Accession #NP_004186.1) expressed on cells (human, UniProt Q9Y5U5 26-241)
T1 sequence: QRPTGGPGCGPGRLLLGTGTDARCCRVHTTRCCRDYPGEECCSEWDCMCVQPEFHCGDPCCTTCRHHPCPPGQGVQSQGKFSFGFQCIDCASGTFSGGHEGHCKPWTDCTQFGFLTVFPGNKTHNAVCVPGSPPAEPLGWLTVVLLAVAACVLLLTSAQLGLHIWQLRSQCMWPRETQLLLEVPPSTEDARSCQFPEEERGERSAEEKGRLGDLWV

T2: mfGITR.mmh (Macaca fasicularis)
T2 construct: soluble monomeric construct; also called Macaca fasicularis (mf) GITR.mmh; cynomolgus GITR protein
T2 chain: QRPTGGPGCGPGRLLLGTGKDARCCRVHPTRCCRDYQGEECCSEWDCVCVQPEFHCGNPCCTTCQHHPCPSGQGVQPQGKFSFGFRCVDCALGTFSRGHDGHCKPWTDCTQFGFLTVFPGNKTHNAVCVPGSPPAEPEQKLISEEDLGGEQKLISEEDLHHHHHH

T3: hGITR.mFc (human)
T3 construct: soluble dimeric construct with mouse Fc; also called dimeric human GITR
T3 chain: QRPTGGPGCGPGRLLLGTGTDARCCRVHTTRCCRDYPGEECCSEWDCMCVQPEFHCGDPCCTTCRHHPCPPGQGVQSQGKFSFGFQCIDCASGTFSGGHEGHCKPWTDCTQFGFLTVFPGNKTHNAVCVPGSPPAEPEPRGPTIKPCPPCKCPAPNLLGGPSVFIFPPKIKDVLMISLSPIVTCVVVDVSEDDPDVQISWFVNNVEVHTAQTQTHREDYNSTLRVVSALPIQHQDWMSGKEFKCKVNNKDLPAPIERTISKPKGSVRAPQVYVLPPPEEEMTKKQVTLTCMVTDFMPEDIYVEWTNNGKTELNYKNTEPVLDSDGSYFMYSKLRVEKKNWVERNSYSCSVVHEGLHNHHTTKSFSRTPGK

T4: hGITR.mmh (human)
T4 construct: soluble monomeric construct; also called human (h) GITR.mmh; monomeric human GITR
T4 chain: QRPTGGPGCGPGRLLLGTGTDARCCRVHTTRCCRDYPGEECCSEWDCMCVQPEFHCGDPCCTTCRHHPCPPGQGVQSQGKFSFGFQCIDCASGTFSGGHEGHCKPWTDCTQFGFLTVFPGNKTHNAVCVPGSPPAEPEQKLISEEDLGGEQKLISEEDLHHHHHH


Columns and labels:
[1] = biological target: T1, human GITR (amino acids M1-V241, NCBI …); assay: cell-based or functional assay
mfGITR.mmh = biological target: T2, mfGITR.mmh; assay: SPR 37C, mAb capture
Experimental: (§1) (Table 3). […] GITR proteins were injected over the sensor surface at a flow rate of 30 μL/minute. All Biacore binding studies were performed in a buffer composed of 0.01M HEPES pH 7.4, 0.15M NaCl, 3 mM EDTA, 0.05% v/v Surfactant P20 (HBS-ET running buffer). Antibody-reagent association was monitored for 4 minutes while dissociation in HBS-ET running buffer (10 mM HEPES, 150 mM NaCl, 3 mM EDTA, 0.05% (v/v) Surfactant P20, pH 7.4) was monitored for 10 minutes. Kinetic association (kₐ) and dissociation (kd) rate constants were determined by fitting the real-time sensorgrams to a 1:1 binding model using Scrubber 2.0c curve fitting software. Binding dissociation equilibrium constants (KD) and dissociative half-lives (t ½) were calculated from the kinetic rate constants as: KD [M]=kd/kₐ; and t_{1/2}(min)=(ln 2/(60*kd). Results are summarized in Table 3.

hGITR.mFc = biological target: T3, hGITR.mFc; assay: SPR 37C, mAb capture
Experimental: as §1

hGITR.mmh = biological target: T4, hGITR.mmh; assay: SPR 37C, mAb capture
Experimental: as §1

[2] = biological target: T1, human GITR (amino acids M1-V241, NCBI …); assay: ECL cell binding, hGITR/HEK293-D9
Experimental: Nonspecific binding sites were blocked with 2% BSA (w/v)+PBS for 1 h at room temperature (RT). Next, serial dilutions of anti-GITR antibodies, ranging from 1.7 pM to 100 nM, were added to cells for 1 h at RT. Plates were then washed to remove unbound antibodies (AquaMax2000 plate washer, MSD Analytical Technologies) and plate-bound antibodies were detected with a SULFO-TAG™ conjugated anti-human kappa light chain IgG antibody (Jackson Immunoresearch) for 1 h at RT.
Following washes, luminescent signals were recorded with a SECTOR Imager 6000 (MSD) instrument. Direct binding signals (relative light units, RLU) were analyzed as a function of the antibody concentration and data were fitted with a sigmoidal (four-parameter logistic) dose-response model using GraphPad Prism™ software. […] The signal detected with 100 nM antibody binding to the hGITR expressing cells versus parental cells was recorded as an indication of intensity and specificity of GITR binding.

Row | Binder | % Activation, NF-kB-Luc, non-anchored [1] [%] | % Blocking, NF-kB-Luc, non-anchored [1] [%] | EC50, hGITR activation, NF-kB-Luc, non-anchored [1] [nM] | IC50, blocking of hGITRL stimulation, NF-kB-Luc, non-anchored [1] [nM] | Kd (mfGITR.mmh) [nM] | koff (mfGITR.mmh) [s⁻¹] | kon (mfGITR.mmh) [M⁻¹ s⁻¹] | t½ (mfGITR.mmh) [min] | Kd (hGITR.mFc) [nM] | koff (hGITR.mFc) [s⁻¹] | kon (hGITR.mFc) [M⁻¹ s⁻¹] | t½ (hGITR.mFc) [min] | Kd (hGITR.mmh) [nM] | koff (hGITR.mmh) [s⁻¹] | kon (hGITR.mmh) [M⁻¹ s⁻¹] | t½ (hGITR.mmh) [min] | Average Signal (RLU) at 100 nM [2] [RLU] | EC50 [2] [nM]
1 | H1H14474P (antibody, human IgG1, V domains shown, human IgG1 (H1H)) VH: QVQLVESGGGVVQPGRSLRLSCAASGFTFSSYGMDWVRQAPGKGLEWVAVIWYPGSNKYYADSVKGRFTVSRDNSKNTLYLQMNSLRAEDTAVYYCARDGELGLDYYSGMDVWGQGTTVTVSS VL: DIQMTQSPSSLSASVGDRVTITCRASQGIRNDLNWYQQKPGKAPKRLINGASSLQSGVPSRFSGSGSGTEFTLTISSLQPEDFATYYCLQLNSYPRTFGQGTKVEIK | 30 | 80 | 1.2 | 0.8 | 28 | 0.00951 | 339000 | 1.2 | 0.107 | 0.00013 | 1.21e+06 | 89.2 | 1.96 | 0.00116 | 591000 | 9.9 | 6230 | 0.28
2 | H1H14503P (antibody, human IgG1, V domains shown, human IgG1 (H1H)) VH: QVQLVESGGGVVQPGRSLRLSCEASGFTFSNYGFHWVRQAPGKGLDWVAVIWYAGSNKFYVDSVQGRFTISRDNSKQILFLQMNSLRAEDSAVYYCVRGGILGIDYYSGMDVWGQGTTVTVSS VL: AIQMTQSPSSLSASVGDRVTITCRASQDIRNDLGWYQQRPGKAPKFLIYSTSSLQSGVPSRFSGSGSGTDFILTISSLQPEDFATYYCLQSHNYPWTFGHGTKVEIK | 50 | 90 | 1.4 | 0.6 | 20.9 | 0.0056 | 268000 | 2.1 | 0.137 | 0.000154 | 1.12e+06 | 75 | 1.39 | 0.000739 | 532000 | 15.6 | 5880 | 0.21
3 | H1H14523P (antibody, human IgG1, V domains shown, human IgG1 (H1H)) VH: QVQLVESGGGVVQPGRSLRLSCEASGFTFSSYGMHWVRQAPGKGLEWVAVIWYSESNKYYTDSMKGRLTISRDNSKNTLYLQMNSLRAEDTAVYYCARGGLLGKYYYYGMDVWGQGTTVTVSS VL: DIQMTQSPSSLSASVGDRVIITCRASQDIRNDLGWYQQKPGKAPKRLIYAASSLQSGVPSRFSGSGSGTEFTLTISSLQPEDFATFYCLQLNSYPYTFGQGTKLEIK | 40 | 70 | 2.5 | 0.9 | 88.5 | 0.0109 | 123000 | 1.1 | 0.216 | 0.00012 | 555000 | 96.3 | 8.63 | 0.00186 | 216000 | 6.2 | 6350 | 0.4
